Target: T1, Ac-DEVD-CHO
T1 chain: DEVD

B1: recombinant, purified active CASP10 (protein)
chain: VKTFLEALPQESWQNKHAGSNGNRATNGAPSLVSRGMQGASANTLNSETSTKRAAVYRMNRNHRGLCVIVNNHSFTSLKDRQGTHKDAEILSHVFQWLGFTVHIHNNVTKVEMEMVLQKQKCNPAHADGDCFVFCILTHGRFGAVYSSDEALIPIREIMSHFTALQCPRLAEKPKLFFIQACQGEEIQPSVSIEADALNPEQAPTSLQDSIPAEADFLLGLATVPGYVSFRHVEEGSWYIQSLCNHLKKLVPRMLKFLEKTMEIRGRKRTVWGAKQISATSLPTAISAQTPRPPMRRWSSVS
activity of recombinant, purified active CASP10 (500 nM; fluorometric AEVD-AMC substrate in MDA-MB-231 lysate): DEVD-CHO ... (20 µM) inhibited the activity of CASP10

Reference: US20200292555
